This assay concerns the target human recombinant ICAM-1 (D1-D2-Fc), Alexa Fluor 555 conjugate (human) (UniProt P05362). The experiment in a line: FRET or BRET; steady-state, in solution competition screening, 96-well plate; Alexa Fluor 488-LFA-1 (100 nM) mixed with peptide (0.02, 0.2, 2, 20 µM), then incubated with Alexa Fluor 555-D1-D2-Fc (100 nM) for 30 min in the dark; PBS pH 7.4, 1 mM EGTA, 2 mM Mg2+; inhibition efficiency from the FRET efficiency. In general terms: BRET reads energy transfer from a luciferase to a nearby fluorophore.

Chain of human recombinant ICAM-1 (D1-D2-Fc), Alexa Fluor 555 conjugate (human) (P05362 28-532): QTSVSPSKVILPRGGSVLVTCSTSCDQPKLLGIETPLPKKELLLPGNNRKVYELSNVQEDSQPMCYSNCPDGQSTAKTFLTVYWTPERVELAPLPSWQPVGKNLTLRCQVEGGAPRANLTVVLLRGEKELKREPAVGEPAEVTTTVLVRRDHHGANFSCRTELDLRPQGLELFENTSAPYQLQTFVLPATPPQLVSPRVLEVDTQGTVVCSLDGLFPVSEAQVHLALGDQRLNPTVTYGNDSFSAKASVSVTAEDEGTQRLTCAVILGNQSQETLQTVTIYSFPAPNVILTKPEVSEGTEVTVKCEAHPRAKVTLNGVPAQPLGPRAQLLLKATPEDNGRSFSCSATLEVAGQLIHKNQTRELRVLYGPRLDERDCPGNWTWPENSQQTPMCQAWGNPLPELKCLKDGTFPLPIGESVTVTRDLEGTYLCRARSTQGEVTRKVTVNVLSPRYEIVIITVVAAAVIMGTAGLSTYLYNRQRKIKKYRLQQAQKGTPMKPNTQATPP

As to APLFYGEQRG [CD11a(456–465) peptide], the inhibition efficiency of the LFA-1/D1-D2-Fc interaction at 0.02 µM peptide is 12.2%, the inhibition efficiency of the LFA-1/D1-D2-Fc interaction at 0.2 µM peptide stood at 20.3%, the inhibition efficiency of the LFA-1/D1-D2-Fc interaction at 2 µM peptide stood at 36.5% and the inhibition efficiency of the LFA-1/D1-D2-Fc interaction at 20 µM peptide came to 51.4%.

In the case of ITDGEATDSGNIDAAKDIIRYIIGI [CD11a(237–261) peptide], the inhibition efficiency of the LFA-1/D1-D2-Fc interaction at 0.02 µM peptide was found to be 40.8%, the inhibition efficiency of the LFA-1/D1-D2-Fc interaction at 0.2 µM peptide came to 47%, the inhibition efficiency of the LFA-1/D1-D2-Fc interaction at 2 µM peptide stood at 53.2% and the inhibition efficiency of the LFA-1/D1-D2-Fc interaction at 20 µM peptide was 65.1%.

These data come from PMC4102529, “FRET Based Quantification and Screening Technology Platform for the Interactions of Leukocyte Function-Associated Antigen-1 (LFA-1) with InterCellular Adhesion Molecule-1 (ICAM-1)” (PLoS ONE, 2014).
